Laboratory results taken from US20260070987A1.
Substitutions are numbered along the chain they refer to. Numbers in names are those of the source.

B1: equine IgG1 M252A (antibody, part only; not given: variable domains, not shown: another chain or arm of the molecule)
constant: ASTTAPKVFALAPGCGTTSDSTVALGCLVSGYFPEPVKVSWNSGSLTSGVHTFPSVLQSSGFYSLSSMVTVPASTWTSETYICNVVHAASNFKVDKRIEPIPDNHQKVCDMSKCPKCPAPELLGGPSVFIFPPNPKDTLAITRTPEVTCVVVDVSQENPDVKFNWYMDGVEVRTATTRPKEEQFNSTYRVVSVLRIQHQDWLSGKEFKCKVNNQALPQPIERTITKTKGRSQEPQVYVLAPHPDELSKSKVSVTCLVKDFYPPEINIEWQSNGQPELETKYSTTQAQQDSDGSYFLYSKLSVDRNRWQQGTTFTCGVMHEALHNHYTQKNVSKNPGK
B2: equine IgG1 T286R (antibody, part only; not given: variable domains, not shown: another chain or arm of the molecule)
constant: B1 constant with A140M, T174R
B3: equine IgG1 T286Q (antibody, part only; not given: variable domains, not shown: another chain or arm of the molecule)
constant: B1 constant with A140M, T174Q
B4: equine IgG4 N434M (antibody, part only; not given: variable domains, not shown: another chain or arm of the molecule)
constant: ASTTAPKVFPLASHSAATSGSTVALGCLVSSYFPEPVTVSWNSGALTSGVHTFPSVLQSSGLYSLSSMVTVPASSLKSQTYICNVAHPASSTKVDKKIVIKECNGGCPAECLQVGPSVFIFPPKPKDVLMISRTPTVTCVVVDVGHDFPDVQFNWYVDGVETHTATTEPKQEQFNSTYRVVSVLPIQHKDWLSGKEFKCKVNNKALPAPVERTISKPTGQPREPQVYVLAPHRDELSKNKVSVTCLVKDFYPTDIDIEWKSNGQPEPETKYSTTPAQLDSDGSYFLYSKLTVETNRWQQGTTFTCAVMHEALHMHYTEKSVSKSPGK
B5: equine IgG4 N434T (antibody, part only; not given: variable domains, not shown: another chain or arm of the molecule)
constant: B4 constant with M314T
B6: equine IgG4 D312C (antibody, part only; not given: variable domains, not shown: another chain or arm of the molecule)
constant: B4 constant with D190C, M314N
B7: equine IgG4 N434W (antibody, part only; not given: variable domains, not shown: another chain or arm of the molecule)
constant: B4 constant with M314W
B8: equine IgG4 D312A (antibody, part only; not given: variable domains, not shown: another chain or arm of the molecule)
constant: B4 constant with D190A, M314N
B9: equine IgG4 N434V (antibody, part only; not given: Variable domains, not shown: another chain or arm of the molecule)
constant: B4 constant with M314V
B10: equine IgG4 N434R (antibody, part only; not given: variable domains, not shown: another chain or arm of the molecule)
constant: B4 constant with M314R
B11: equine IgG4 N434P (antibody, part only; not given: variable domains, not shown: another chain or arm of the molecule)
constant: B4 constant with M314P
B12: equine IgG4 N434Y (antibody, part only; not given: variable domains, not shown: another chain or arm of the molecule)
constant: B4 constant with M314Y
B13: equine IgG4 N434Q (antibody, part only; not given: variable domains, not shown: another chain or arm of the molecule)
constant: B4 constant with M314Q
B14: equine IgG4 N434S (antibody, part only; not given: variable domains, not shown: another chain or arm of the molecule)
constant: B4 constant with M314S

molecular target: equine FcRn (large alpha subunit p51) / equine beta-2-microglobulin complex, biotinylated (equine) (UniProt P30441); assay: SPR (Biacore), pH 6
Chain of UniProt P30441 (P30441 21-118, one chain of several): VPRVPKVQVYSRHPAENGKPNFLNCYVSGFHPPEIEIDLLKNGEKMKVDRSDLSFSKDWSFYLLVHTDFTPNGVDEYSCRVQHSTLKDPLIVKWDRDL

First: B1
Second: B2
The Kd of the first is 2.5-fold higher: 50.3 nM for the first, 20.5 nM for the second. The second binds more tightly here.

First: B3
Second: B4
The Kd of the first is 2.6-fold lower: 17 nM for the first, 43.4 nM for the second. The first binds more tightly here.

Compared with B5, B6 is 2.1-fold lower in Kd: 57.5 nM for the first, 27.1 nM for the second. The second binds more tightly here.

Going from B7 to B8, the Kd rises from 1.6 nM to 13.1 nM (8.2-fold). The first binds more tightly here.

B9 and B10 are within 1.5-fold of each other in Kd: 32.6 nM for the first, 22.7 nM for the second.

Going from B11 to B12, the Kd falls from 39.4 nM to 4.6 nM (8.6-fold).

B13 and B14 are within 1.5-fold of each other in Kd: 17.7 nM for the first, 23.8 nM for the second.
